For 14 molecules, Ki results are on record in patent US20180273587A1 (AILERON THERAPEUTICS, published 2018).

Positions of bridges follow the written chain, without caps; N, C: chain ends. Non-standard residues stand in square brackets, D forms with d. hCha = N[C@@H](CCC1CCCCC1)C(=O)O; hPhe = N[C@@H](CCc1ccccc1)C(=O)O; R8 = C=CCCCCCC[C@@](C)(N)C(=O)O; αMeD = C[C@](N)(CC(=O)O)C(=O)O; S5 = C=CCCC[C@](C)(N)C(=O)O

Common to all, as to test: Ki table, method not stated
The target in one experiment is BCL-XL (UniProt Q07817 1-209).
Chain of BCL-XL (Q07817 1-209): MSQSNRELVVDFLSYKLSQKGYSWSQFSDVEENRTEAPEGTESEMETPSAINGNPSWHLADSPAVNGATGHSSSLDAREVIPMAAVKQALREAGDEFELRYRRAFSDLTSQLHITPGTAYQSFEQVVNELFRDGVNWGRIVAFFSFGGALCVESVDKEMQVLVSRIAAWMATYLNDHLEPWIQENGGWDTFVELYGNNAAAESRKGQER
Another experiment deals with BCL-2 (UniProt P10415 1-217, limits assumed).
Chain of BCL-2 (P10415 1-217 limits assumed): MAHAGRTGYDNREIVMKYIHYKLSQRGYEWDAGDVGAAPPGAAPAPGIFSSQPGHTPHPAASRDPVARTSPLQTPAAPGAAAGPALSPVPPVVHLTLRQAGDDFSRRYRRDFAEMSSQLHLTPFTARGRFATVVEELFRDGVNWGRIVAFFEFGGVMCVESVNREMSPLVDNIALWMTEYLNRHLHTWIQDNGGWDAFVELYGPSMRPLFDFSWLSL
Another experiment deals with T1, MCL-1 (UniProt Q07820 172-327, limits assumed).
T1 construct: also called Myeloid cell leukemia 1
T1 sequence (Q07820 172-327 limits assumed): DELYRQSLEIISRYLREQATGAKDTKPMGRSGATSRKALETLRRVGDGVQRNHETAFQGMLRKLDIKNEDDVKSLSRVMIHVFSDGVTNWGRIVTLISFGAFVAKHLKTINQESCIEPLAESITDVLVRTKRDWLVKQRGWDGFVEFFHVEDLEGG

B1: SEQ ID NO: 1629 (peptide)
peptide: Ac-IWIAQELR[R8]IGDEFN[S5]YYARR-NH2
modifications: staple 9-16
SMILES: CC[C@H](C)[C@H](NC(C)=O)C(=O)N[C@@H](Cc1c[nH]c2ccccc12)C(=O)N[C@H](C(=O)N[C@@H](C)C(=O)N[C@@H](CCC(N)=O)C(=O)N[C@@H](CCC(=O)O)C(=O)N[C@@H](CC(C)C)C(=O)N[C@@H](CCCNC(=N)N)C(=O)N[C@]1(C)CCCCCCC=CCCC[C@@](C)(C(=O)N[C@@H](Cc2ccc(O)cc2)C(=O)N[C@@H](Cc2ccc(O)cc2)C(=O)N[C@@H](C)C(=O)N[C@@H](CCCNC(=N)N)C(=O)N[C@@H](CCCNC(=N)N)C(N)=O)NC(=O)[C@H](CC(N)=O)NC(=O)[C@H](Cc2ccccc2)NC(=O)[C@H](CCC(=O)O)NC(=O)[C@H](CC(=O)O)NC(=O)CNC(=O)[C@H]([C@@H](C)CC)NC1=O)[C@@H](C)CC
As a reminder, the Ki is a measure of affinity in units of concentration, obtained from inhibition or displacement. High values mean a looser hold on the target, low ones a stronger hold on the target. As for B1, the Ki with BCL-XL is 9.2 nM; with BCL-2, 23.5 nM.

B2: SEQ ID NO: 1630 (peptide)
peptide: Ac-WIAQALR[R8]IGDAFN[S5]YYA-NH2
modifications: staple 8-15
SMILES: CC[C@H](C)[C@H](NC(=O)[C@H](Cc1c[nH]c2ccccc12)NC(C)=O)C(=O)N[C@@H](C)C(=O)N[C@@H](CCC(N)=O)C(=O)N[C@@H](C)C(=O)N[C@@H](CC(C)C)C(=O)N[C@@H](CCCNC(=N)N)C(=O)N[C@]1(C)CCCCCCC=CCCC[C@@](C)(C(=O)N[C@@H](Cc2ccc(O)cc2)C(=O)N[C@@H](Cc2ccc(O)cc2)C(=O)N[C@@H](C)C(N)=O)NC(=O)[C@H](CC(N)=O)NC(=O)[C@H](Cc2ccccc2)NC(=O)[C@H](C)NC(=O)[C@H](CC(=O)O)NC(=O)CNC(=O)[C@H]([C@@H](C)CC)NC1=O
notes: also called Ac-WIAQALR$r8IGDAFN$YYA-NH2
With B2, the inhibition constant Ki with BCL-XL was 213 nM; in the experiment with BCL-2, 424 nM.

B3: SEQ ID NO: 1709 (peptide)
peptide: Ac-IWIAQALR[R8]IG[αMeD]AFN[S5]YYA-NH2
modifications: staple 9-16
SMILES: CC[C@H](C)[C@H](NC(C)=O)C(=O)N[C@@H](Cc1c[nH]c2ccccc12)C(=O)N[C@H](C(=O)N[C@@H](C)C(=O)N[C@@H](CCC(N)=O)C(=O)N[C@@H](C)C(=O)N[C@@H](CC(C)C)C(=O)N[C@@H](CCCNC(=N)N)C(=O)N[C@]1(C)CCCCCCC=CCCC[C@@](C)(C(=O)N[C@@H](Cc2ccc(O)cc2)C(=O)N[C@@H](Cc2ccc(O)cc2)C(=O)N[C@@H](C)C(N)=O)NC(=O)[C@H](CC(N)=O)NC(=O)[C@H](Cc2ccccc2)NC(=O)[C@H](C)NC(=O)[C@](C)(CC(=O)O)NC(=O)CNC(=O)[C@H]([C@@H](C)CC)NC1=O)[C@@H](C)CC
In the experiment with BCL-XL, B3 came in with a Ki of 15.5 nM.

B4: SEQ ID NO: 1673 (peptide)
peptide: Ac-IWIAQALA[R8]IGDAFN[S5]YYA-NH2
modifications: staple 9-16
SMILES: CC[C@H](C)[C@H](NC(C)=O)C(=O)N[C@@H](Cc1c[nH]c2ccccc12)C(=O)N[C@H](C(=O)N[C@@H](C)C(=O)N[C@@H](CCC(N)=O)C(=O)N[C@@H](C)C(=O)N[C@@H](CC(C)C)C(=O)N[C@@H](C)C(=O)N[C@]1(C)CCCCCCC=CCCC[C@@](C)(C(=O)N[C@@H](Cc2ccc(O)cc2)C(=O)N[C@@H](Cc2ccc(O)cc2)C(=O)N[C@@H](C)C(N)=O)NC(=O)[C@H](CC(N)=O)NC(=O)[C@H](Cc2ccccc2)NC(=O)[C@H](C)NC(=O)[C@H](CC(=O)O)NC(=O)CNC(=O)[C@H]([C@@H](C)CC)NC1=O)[C@@H](C)CC
On to B4, for which the inhibition constant Ki with MCL-1 was determined as 73.8 nM; in the experiment with BCL-XL, 386 nM.

B5: SEQ ID NO: 1692 (peptide)
peptide: Ac-IWIAQA[hPhe]R[R8]IGDAFN[S5]YYA-NH2
modifications: staple 9-16
SMILES: CC[C@H](C)[C@H](NC(C)=O)C(=O)N[C@@H](Cc1c[nH]c2ccccc12)C(=O)N[C@H](C(=O)N[C@@H](C)C(=O)N[C@@H](CCC(N)=O)C(=O)N[C@@H](C)C(=O)N[C@@H](CCc1ccccc1)C(=O)N[C@@H](CCCNC(=N)N)C(=O)N[C@]1(C)CCCCCCC=CCCC[C@@](C)(C(=O)N[C@@H](Cc2ccc(O)cc2)C(=O)N[C@@H](Cc2ccc(O)cc2)C(=O)N[C@@H](C)C(N)=O)NC(=O)[C@H](CC(N)=O)NC(=O)[C@H](Cc2ccccc2)NC(=O)[C@H](C)NC(=O)[C@H](CC(=O)O)NC(=O)CNC(=O)[C@H]([C@@H](C)CC)NC1=O)[C@@H](C)CC
notes: also called Ac-IWIAQAhFR$r8IGDAFN$YYA-NH2
As for B5, the Ki in the experiment with MCL-1 was 7.5 nM.

B6: SEQ ID NO: 1690 (peptide)
peptide: Ac-IWIAQA[hCha]R[R8]IGDAFN[S5]YYA-NH2
modifications: staple 9-16
SMILES: CC[C@H](C)[C@H](NC(C)=O)C(=O)N[C@@H](Cc1c[nH]c2ccccc12)C(=O)N[C@H](C(=O)N[C@@H](C)C(=O)N[C@@H](CCC(N)=O)C(=O)N[C@@H](C)C(=O)N[C@@H](CCC1CCCCC1)C(=O)N[C@@H](CCCNC(=N)N)C(=O)N[C@]1(C)CCCCCCC=CCCC[C@@](C)(C(=O)N[C@@H](Cc2ccc(O)cc2)C(=O)N[C@@H](Cc2ccc(O)cc2)C(=O)N[C@@H](C)C(N)=O)NC(=O)[C@H](CC(N)=O)NC(=O)[C@H](Cc2ccccc2)NC(=O)[C@H](C)NC(=O)[C@H](CC(=O)O)NC(=O)CNC(=O)[C@H]([C@@H](C)CC)NC1=O)[C@@H](C)CC
notes: also called Ac-IWIAQAhChaR$r8IGDAFN$YYA-NH2
In the experiment with MCL-1, B6 came in with a Ki of 3.8 nM.

B7: SEQ ID NO: 1635 (peptide)
peptide: Ac-IAQALR[R8]IGDAFN[S5]YYA-NH2
modifications: staple 7-14
SMILES: CC[C@H](C)[C@H](NC(C)=O)C(=O)N[C@@H](C)C(=O)N[C@@H](CCC(N)=O)C(=O)N[C@@H](C)C(=O)N[C@@H](CC(C)C)C(=O)N[C@@H](CCCNC(=N)N)C(=O)N[C@]1(C)CCCCCCC=CCCC[C@@](C)(C(=O)N[C@@H](Cc2ccc(O)cc2)C(=O)N[C@@H](Cc2ccc(O)cc2)C(=O)N[C@@H](C)C(N)=O)NC(=O)[C@H](CC(N)=O)NC(=O)[C@H](Cc2ccccc2)NC(=O)[C@H](C)NC(=O)[C@H](CC(=O)O)NC(=O)CNC(=O)[C@H]([C@@H](C)CC)NC1=O
notes: also called Ac-IAQALR$r8IGDAFN$YYA-NH2
For the molecule B7, the Ki with BCL-XL was found to be 309 nM; with BCL-2, 519 nM.

B8: SEQ ID NO: 1636 (peptide)
peptide: Ac-IAAALR[R8]IGDAFN[S5]YYA-NH2
modifications: staple 7-14
SMILES: CC[C@H](C)[C@H](NC(C)=O)C(=O)N[C@@H](C)C(=O)N[C@@H](C)C(=O)N[C@@H](C)C(=O)N[C@@H](CC(C)C)C(=O)N[C@@H](CCCNC(=N)N)C(=O)N[C@]1(C)CCCCCCC=CCCC[C@@](C)(C(=O)N[C@@H](Cc2ccc(O)cc2)C(=O)N[C@@H](Cc2ccc(O)cc2)C(=O)N[C@@H](C)C(N)=O)NC(=O)[C@H](CC(N)=O)NC(=O)[C@H](Cc2ccccc2)NC(=O)[C@H](C)NC(=O)[C@H](CC(=O)O)NC(=O)CNC(=O)[C@H]([C@@H](C)CC)NC1=O
notes: also called Ac-IAAALR$r8IGDAFN$YYA-NH2
With B8, the values for the Ki in the experiment with BCL-XL and with BCL-2 were 256 nM and 319 nM, respectively.

B9: SEQ ID NO: 1640 (peptide)
peptide: Ac-IAQALR[R8]IGDAFN[S5]AYA-NH2
modifications: staple 7-14
SMILES: CC[C@H](C)[C@H](NC(C)=O)C(=O)N[C@@H](C)C(=O)N[C@@H](CCC(N)=O)C(=O)N[C@@H](C)C(=O)N[C@@H](CC(C)C)C(=O)N[C@@H](CCCNC(=N)N)C(=O)N[C@]1(C)CCCCCCC=CCCC[C@@](C)(C(=O)N[C@@H](C)C(=O)N[C@@H](Cc2ccc(O)cc2)C(=O)N[C@@H](C)C(N)=O)NC(=O)[C@H](CC(N)=O)NC(=O)[C@H](Cc2ccccc2)NC(=O)[C@H](C)NC(=O)[C@H](CC(=O)O)NC(=O)CNC(=O)[C@H]([C@@H](C)CC)NC1=O
notes: also called Ac-IAQALR$r8IGDAFN$AYA-NH2
In the case of B9, the inhibition constant (Ki) in the experiment with BCL-XL worked out at 472 nM; in the experiment with BCL-2, 804 nM.

B10: SEQ ID NO: 1631 (peptide)
peptide: Ac-IAQALR[R8]IGDAFA[S5]YYA-NH2
modifications: staple 7-14
SMILES: CC[C@H](C)[C@H](NC(C)=O)C(=O)N[C@@H](C)C(=O)N[C@@H](CCC(N)=O)C(=O)N[C@@H](C)C(=O)N[C@@H](CC(C)C)C(=O)N[C@@H](CCCNC(=N)N)C(=O)N[C@]1(C)CCCCCCC=CCCC[C@@](C)(C(=O)N[C@@H](Cc2ccc(O)cc2)C(=O)N[C@@H](Cc2ccc(O)cc2)C(=O)N[C@@H](C)C(N)=O)NC(=O)[C@H](C)NC(=O)[C@H](Cc2ccccc2)NC(=O)[C@H](C)NC(=O)[C@H](CC(=O)O)NC(=O)CNC(=O)[C@H]([C@@H](C)CC)NC1=O
notes: also called Ac-IAQALR$r8IGDAFA$YYA-NH2
In the case of B10, the Ki was 374 nM in the experiment with BCL-XL and 878 nM in the experiment with BCL-2.

B11: SEQ ID NO: 1638 (peptide)
peptide: Ac-IAQALR[R8]IADAFN[S5]YYA-NH2
modifications: staple 7-14
SMILES: CC[C@H](C)[C@H](NC(C)=O)C(=O)N[C@@H](C)C(=O)N[C@@H](CCC(N)=O)C(=O)N[C@@H](C)C(=O)N[C@@H](CC(C)C)C(=O)N[C@@H](CCCNC(=N)N)C(=O)N[C@]1(C)CCCCCCC=CCCC[C@@](C)(C(=O)N[C@@H](Cc2ccc(O)cc2)C(=O)N[C@@H](Cc2ccc(O)cc2)C(=O)N[C@@H](C)C(N)=O)NC(=O)[C@H](CC(N)=O)NC(=O)[C@H](Cc2ccccc2)NC(=O)[C@H](C)NC(=O)[C@H](CC(=O)O)NC(=O)[C@H](C)NC(=O)[C@H]([C@@H](C)CC)NC1=O
notes: also called Ac-IAQALR$r8IADAFN$YYA-NH2
For the molecule B11, the results for the Ki in the experiment with BCL-XL and with BCL-2 were 243 nM and 272 nM, respectively.

B12: SEQ ID NO: 1656 (peptide)
peptide: IWIAQALXAIGDQFNAYYA
modifications: not fully specified; Ac- at N-terminus; -NH2 at C-terminus; $r8 at 9 and $ at 16 joined by all-carbon crosslinker; Cit (citrulline) at 8
Turning to B12, the results for the inhibitory constant (Ki) in the experiment with BCL-XL and with BCL-2 were 28.8 nM and 88.2 nM, respectively.

B13: SEQ ID NO: 1634 (peptide)
peptide: Ac-WIAQALR[R8]IGDAFN[S5]YYA-NH2
modifications: staple 8-15
SMILES: CC[C@H](C)[C@H](NC(=O)[C@H](Cc1c[nH]c2ccccc12)NC(C)=O)C(=O)N[C@@H](C)C(=O)N[C@@H](CCC(N)=O)C(=O)N[C@@H](C)C(=O)N[C@@H](CC(C)C)C(=O)N[C@@H](CCCNC(=N)N)C(=O)N[C@]1(C)CCCCCCC=CCCC[C@@](C)(C(=O)N[C@@H](Cc2ccc(O)cc2)C(=O)N[C@@H](Cc2ccc(O)cc2)C(=O)N[C@@H](C)C(N)=O)NC(=O)[C@H](CC(N)=O)NC(=O)[C@H](Cc2ccccc2)NC(=O)[C@H](C)NC(=O)[C@H](CC(=O)O)NC(=O)CNC(=O)[C@H]([C@@H](C)CC)NC1=O
notes: as for B2
B13 yielded an inhibition constant Ki with BCL-2 of 410 nM.

B14: SEQ ID NO: 1688 (peptide)
peptide: Ac-IWIAQA[hhL]R[R8]IGDAFN[S5]YYA-NH2
modifications: staple 9-16
notes: also called Ac-IWIAQAhhLR$r8IGDAFN$YYA-NH2
B14: the Ki worked out at 136 nM with BCL-XL and 231 nM in the experiment with BCL-2.
